Laboratory results: patent US20130117870

Experiments:
Assay in all cases: cell_activity
[1] = test system: LDLRE2.1 (LDLR2.1) TALEN pair (synthetic construct); details: mRNA, pig fibroblasts, 30 C; plasmid 14.4-21.5
[2] = test system: ACAN12 TALEN pair (+231) (synthetic construct); details: +231 scaffold in fibroblasts; indels confirmed in bovine embryos (Table 2)
[3] = test system: ACAN12 TALEN pair (+63) (synthetic construct); details: SURVEYOR, bovine fibroblasts; 29 in Table 1
[4] = test system: DMDE6 TALEN pair (synthetic construct); details: pig fibroblasts
[5] = test system: DMDE7.1 TALEN pair (synthetic construct); details: SURVEYOR, pig fibroblasts; 27 in Table 1
[6] = test system: GHRHR2.3 TALEN pair (synthetic construct); details: mRNA, female pig fibroblasts; male 32.5; puro-free plasmid G-418 29
[7] = test system: LDLRE4.2 TALEN pair (synthetic construct); details: male pig fibroblasts; female 19
[8] = test system: p65 (p6511.1) TALEN pair (synthetic construct); details: 10 ng/ul mRNA each, porcine zygotes

“CTCCTACAAGTGGATTGTGATGGGAACACCGAGTGCAAGGACGGGTCCG (double strand) [porcine LDLR exon 2 target]” was tested, and the activity (% modified (day 3)) [1] was 34.

Substance bovine ACAN12 target has an activity (% chromosomes cleaved) [2] of under 1 and an activity (% chromosomes cleaved) [3] of 25.

porcine DMD exon 6 target was tested, and the activity (% modified (day 3)) [4] was 25.

For porcine DMD exon 7 target, the activity (% chromosomes cleaved) [5] was 38.

porcine GHRHR target was tested, and the activity (% modified (day 3)) [6] was 35.

With porcine LDLR exon 4 target the activity (% modified (day 3)) [7] was 20.

Substance porcine RELA (p65) target has an activity (% embryos with indels (16/56)) [8] of 29.
